Test results as given in patent EP4261227A1.

Target: OXA-48-like carbapenemase (Klebsiella pneumoniae) (UniProt Q6XEC0)
Assay: indirect ELISA, plate coated with 0.2 ug/mL OXA-48-like carbapenemase, purified antibody in doubling dilutions from 1:1000

UniProt Q6XEC0, sequence (Q6XEC0 23-265 limits assumed): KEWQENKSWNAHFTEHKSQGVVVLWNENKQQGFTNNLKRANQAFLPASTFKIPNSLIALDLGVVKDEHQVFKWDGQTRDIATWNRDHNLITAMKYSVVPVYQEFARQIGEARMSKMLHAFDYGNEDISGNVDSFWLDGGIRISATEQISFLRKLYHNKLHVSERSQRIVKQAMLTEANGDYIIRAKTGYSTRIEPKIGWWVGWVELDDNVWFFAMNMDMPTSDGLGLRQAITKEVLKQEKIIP

B1: anti-OXA-48-like carbapenemase mouse mAb IB5 (antibody, V domains shown)
VH: EVMLVESGGGLVKPGGSLKLSCAASGFTFSTYAMSWVRLTPEKRLEWVATISSGGSYTSYPDSVKGRFTISRDNAKNTLYLQMSSLRSEDTAMYYCARRPEYAMDYWGQGTSVTVSS
VL: LVQHQPVSSYLAASPGETVTINCRASKSISKYLAWYQEKPGKTNKLLIYSGSTFQSGFPSGFSGSGSGTDFTLTVSSLEPEDFAIYYCQQHNEYPYVTFGGGTKLEIKR
  titer (dilution factor (1:x) from 1 mg/mL): 1.28e+06
